Measurements: PMC9288512
Changes are numbered by the printed parent chain. Names may count otherwise.

Molecular target: recombinant human proprotein convertase subtilisin/kexin 9 (hPCSK9), his-tagged, Q8NBP7
Experiment: SPR
Settings: chain shown with the change; 25 ℃; parent: ~5.013

Chain of recombinant human proprotein convertase subtilisin/kexin 9 (hPCSK9), his-tagged, Q8NBP7 (Q8NBP7 153-692): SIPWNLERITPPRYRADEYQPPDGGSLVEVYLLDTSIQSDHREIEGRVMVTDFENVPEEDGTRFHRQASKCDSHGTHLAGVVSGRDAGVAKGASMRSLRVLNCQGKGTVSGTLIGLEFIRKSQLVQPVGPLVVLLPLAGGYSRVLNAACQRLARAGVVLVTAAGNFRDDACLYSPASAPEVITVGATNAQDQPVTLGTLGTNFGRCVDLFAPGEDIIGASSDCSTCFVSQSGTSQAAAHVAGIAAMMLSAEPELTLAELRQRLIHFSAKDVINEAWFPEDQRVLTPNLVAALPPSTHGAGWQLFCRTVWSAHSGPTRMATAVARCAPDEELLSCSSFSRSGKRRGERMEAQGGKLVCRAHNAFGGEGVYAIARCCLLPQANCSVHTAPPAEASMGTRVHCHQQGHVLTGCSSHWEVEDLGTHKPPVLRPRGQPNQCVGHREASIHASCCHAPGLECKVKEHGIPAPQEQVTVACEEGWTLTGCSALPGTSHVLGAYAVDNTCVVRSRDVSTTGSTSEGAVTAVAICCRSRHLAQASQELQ

B1: VHH-B11 (monovalent camelid nanobody against hPCSK9) FR1:Q1E; FR1:Q5L; FR1:S11L; FR1:A14P; FR1:T23A; FR1:V24A; FR3:V87L; FR3:K95R; FR3:P96A; FR3:M101V (protein)
chain: EVQLLESGGGLVQPGGSLRLSCAASGYTYSSNCMGWFRQAPGKEHEGVASIYIGGGSTYYADSVKGRFTISQDNAKNTLYLQMNSLRAEDTAVYYCAVGCQGLVDFGYWDQGTQVTVSS
- Kd: 3.22 nM

B2: VHH-B11 (monovalent camelid nanobody against hPCSK9) FR1:Q1E; FR1:Q5L; FR1:S11L; FR1:A14P; FR1:T23A; FR1:V24A; FR2:A54S; FR3:V87L; FR3:K95R; FR3:P96A; FR3:M101V (protein)
chain: B1 chain with A49S
- Kd: > 1000 nM

B3: VHH-B11 (monovalent camelid nanobody against hPCSK9) FR1:Q1E; FR1:Q5L; FR1:S11L; FR1:A14P; FR1:T23A; FR1:V24A; FR2:A54S; FR3:A83S; FR3:K95R; FR3:P96A; FR3:M101V (protein)
chain: B1 chain with A49S, A75S, L79V
- Kd: 11.3 nM

B4: VHH-B11 (monovalent camelid nanobody against hPCSK9) FR1:Q1E; FR1:Q5L; FR1:S11L; FR1:A14P; FR2:A54S; FR3:Q80R; FR3:A83S; FR3:V87L; FR3:K95R; FR3:P96A; FR3:M101V (protein)
chain: B1 chain with A23T, A24V, A49S, Q72R, A75S
- Kd: 7.99 nM

B5: VHH-B11 (monovalent camelid nanobody against hPCSK9) FR1:Q1E; FR1:Q5L; FR1:S11L; FR1:A14P; FR1:T23A; FR1:V24A; FR2:A54S; FR3:A83S; FR3:V87L; FR3:K95R; … (protein)
chain: B1 chain with A49S, A75S
- Kd: > 1000 nM
